Assay results as given in patent publication US20070286935A1, “Bioactive Compositions, Natural Methods of Producing Them and Computational Methods for Designing Natural Production Processes” (NESTEC S.A., priority 2004, published 2007).

What was measured:
Y2-GPCR = molecular target: T1, Y2-GPCR (Homo sapiens, UniProt P49146); assay: competitive binding assay against PYY22-36 on Y2-GPCR
T1 sequence (P49146 1-381): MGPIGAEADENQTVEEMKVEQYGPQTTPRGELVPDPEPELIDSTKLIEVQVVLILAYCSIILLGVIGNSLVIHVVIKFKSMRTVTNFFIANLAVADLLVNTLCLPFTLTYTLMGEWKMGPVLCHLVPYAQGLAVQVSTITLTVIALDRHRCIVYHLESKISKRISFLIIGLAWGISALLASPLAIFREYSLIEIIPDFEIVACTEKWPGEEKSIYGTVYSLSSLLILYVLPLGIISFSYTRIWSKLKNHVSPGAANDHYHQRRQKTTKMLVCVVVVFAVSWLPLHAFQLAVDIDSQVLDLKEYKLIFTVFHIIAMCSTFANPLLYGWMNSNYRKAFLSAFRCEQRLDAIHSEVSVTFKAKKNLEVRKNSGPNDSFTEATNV
Experimental: The peptides derived from the proteins AtRGP2, OsRGP1 and OsBiP were synthesized in 5 mg quantities at and purified to a purity of above about 90%. The peptides were tested in a competitive binding assay against PYY^22-36 for binding to the GPCR receptor.
In-vitro receptor-based screening of receptor subtypes Y1, Y2, and Y3 was performed according to protocols known in the art. (Munoz et al., Mol. Cell. Endocrinol. 107, 77 (1995), Fuhlendorf et al., PNAS 87, 182 (1990)) Screening of OsBiP, ZmRGP1 and AtRGP1 was conducted on Y2-GPCR as described above using known methods and activity was measured as the percentage of inhibition of binding of the endogenous ligand PYY^22-36 sequence. The PYY^22-36 sequence was used as a positive control. Of the peptides tested, the one derived from AtRGP1 protein was able to inhibit binding of PYY^22-36 by 20-40% when 10 μM concentration of both the PYY^22-36 and OsBiP peptide were used in the binding assay. […] In vivo tissue-based screening on cultures of rat colon cells can be carried out according to known protocols, such as described in Dumont et al., Eur. J. Pharmacol. 238, 37 (1993).

Y2 GPCR receptor = molecular target: T2, Y2 GPCR receptor; assay: competitive receptor binding assay on Y2-GPCR against PYY22-36, 10 µM of both peptides
T2 sequence (P49146 whole entry, species assumed, looked up): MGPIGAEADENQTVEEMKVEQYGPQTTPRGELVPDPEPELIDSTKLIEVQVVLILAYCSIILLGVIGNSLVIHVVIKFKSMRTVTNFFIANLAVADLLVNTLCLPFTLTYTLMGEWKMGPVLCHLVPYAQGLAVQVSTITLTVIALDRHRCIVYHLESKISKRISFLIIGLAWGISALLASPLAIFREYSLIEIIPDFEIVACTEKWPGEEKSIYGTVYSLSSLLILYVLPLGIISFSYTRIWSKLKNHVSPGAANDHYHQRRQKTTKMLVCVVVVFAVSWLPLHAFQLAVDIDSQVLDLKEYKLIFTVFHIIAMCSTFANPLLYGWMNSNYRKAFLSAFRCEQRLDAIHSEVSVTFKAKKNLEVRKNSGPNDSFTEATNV

[1] = molecular target: T3, CCK-B GPCR receptor (human) (UniProt P32239); assay: competitive receptor binding assay against CCK-8 on CCK-B receptor, synthetic peptide at 10 µM
T3 sequence (looked up): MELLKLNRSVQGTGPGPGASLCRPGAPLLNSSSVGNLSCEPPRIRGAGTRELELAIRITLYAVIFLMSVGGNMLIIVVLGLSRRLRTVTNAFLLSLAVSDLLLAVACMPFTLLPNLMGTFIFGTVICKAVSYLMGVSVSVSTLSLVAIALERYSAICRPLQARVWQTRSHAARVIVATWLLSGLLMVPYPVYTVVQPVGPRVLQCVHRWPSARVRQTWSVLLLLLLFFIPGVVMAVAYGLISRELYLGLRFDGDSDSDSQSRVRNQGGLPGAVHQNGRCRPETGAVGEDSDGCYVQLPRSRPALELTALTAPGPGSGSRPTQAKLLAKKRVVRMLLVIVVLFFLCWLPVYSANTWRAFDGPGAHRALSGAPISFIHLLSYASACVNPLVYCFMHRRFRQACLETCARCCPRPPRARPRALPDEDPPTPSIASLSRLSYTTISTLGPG

FDGVDFSEPLTRARF [OsBIP]
binding to the Y2 receptor (Y2-GPCR; same technique, result in words): shown to bind the Y2 receptor

YSCRYFGYLVSKKKY (listed as Arabidopsis thaliana) [AtRGP1, peptide derived from Arabidopsis thaliana amylogenin protein RGP]
percentage of inhibition of binding of the endogenous ligand PYY22-36 (Y2-GPCR; 10 μM concentration of both PYY22-36 and test peptide, Y2-GPCR): 20-40%

YSCRYFGYLVSKKKY [AtRGP2 peptide fragment (peptide derived from Arabidopsis thaliana amylogenin protein RGP)]
percent inhibition of binding of PYY22-36 (Y2 GPCR receptor): 20 to 40%

PWMDFKELQEFK [Oryza sativa oryzacystatin hydrolyzed with trypsin - synthetic peptide 3 (…)]
percent inhibition of binding of CCK-8 [1]: 5%
